The target of one assay is HLA-A*24:02. Put plainly: IEDB peptide-MHC binding, purified MHC/competitive/fluorescence; ≥ and ≤ were set here for values at or beyond the usual limits of such assays.
The target of the next assay is HLA-B*07:02. Described as above.
Another assay has as its target HLA-B*08:01. The assay is described as above.
A further assay deals with HLA-B*40:01. Put plainly: IEDB peptide-MHC binding, purified MHC/competitive/fluorescence; filed as Kd, often an IC50 or EC50 that approximates it; ≥ and ≤ were set here for values at or beyond the usual limits of such assays.
Assay [1] addresses HLA-A*02:01. Nature of the assay: IEDB peptide-MHC binding, purified MHC/competitive/fluorescence; ≥ and ≤ were set here for values at or beyond the usual limits of such assays. To be noted: source organism: Zaire ebolavirus.
Assay [2] has as its target HLA-A*03:01. The assay is described as above. To be noted: source organism: Zaire ebolavirus.
Another assay has as its target HLA-A*11:01. Described as above. To be noted: source organism: Zaire ebolavirus.
Assay [3] deals with HLA-B*15:01. The assay is described as above. The following applies: source organism: Zaire ebolavirus.
A further assay addresses HLA-A*30:01. Nature of the assay: IEDB peptide-MHC binding, purified MHC/competitive/radioactivity; filed as Kd, often an IC50 or EC50 that approximates it; ≥ and ≤ were set here for values at or beyond the usual limits of such assays. The following applies: source organism: Vaccinia virus WR.
Assay [4] has as its target HLA-A*02:01. Nature of the assay: IEDB peptide-MHC binding, purified MHC/competitive/fluorescence; filed as Kd, often an IC50 or EC50 that approximates it; ≥ and ≤ were set here for values at or beyond the usual limits of such assays.
The next assay deals with HLA-A*02:03. The assay is described as above.
The target of the next assay is HLA-A*02:11. Described as above.
The next assay addresses HLA-A*02:12. The assay is described as above.
A further assay concerns the target HLA-A*02:16. Described as above.
Another assay has as its target HLA-A*02:19. Described as above.
Assay [5] addresses HLA-A*03:01. Described as above.
The next assay has as its target HLA-A*26:01. Described as above.
A further assay addresses HLA-A*68:02. Described as above.
The next assay addresses HLA-A*69:01. The description is as above.
The target in another assay is HLA-B*27:03. The assay is described as above.
The target of another assay is HLA-B*39:01. The assay is described as above.
The target of a further assay is HLA-B*46:01. The assay is described as above.
The target of another assay is HLA-B*57:01. Described as above.
For another assay, the target named is HLA-A*24:03. The assay is described as above.
In a further assay the target is HLA-B*18:01. The description is as above.
The next assay deals with HLA-B*51:01. The assay is described as above.
For another assay, the target named is HLA-A*31:01. The assay is described as above. The following applies: source organism: Bacillus anthracis str. A0488.
The target of assay [6] is HLA-B*15:01. The assay is described as above.
The target in another assay is HLA-A*29:02. The description is as above.
Where [7] appears, read: source organism: Vaccinia virus WR.
[8] abbreviates: source organism: Zaire ebolavirus.
Setting [9] is: source organism: Burkholderia pseudomallei 91.
The mark [10] stands for this setting: source organism: Rickettsia sibirica 246.
Setting [11] is: source organism: Bacillus anthracis str. A0488.
[12] abbreviates: source organism: Human immunodeficiency virus 1.
Setting [13] is: source organism: Escherichia coli E22.
The mark [14] stands for this setting: source organism: Burkholderia vietnamiensis G4.
Setting [15] is: source organism: Listeria monocytogenes J0161.

As to LPKRSVMLI, the concentration for half-maximal inhibition (IC50) (commonly the concentration that inhibits the measured activity by half) is at least 93 µM with HLA-A*24:02 (setting [7]), 6.45 µM with HLA-B*07:02 (setting [7]) and 12.9 µM in the assay with HLA-B*08:01 (setting [7]).

Consider IAVARKHHT, for which the figures for the IC50 in the assay with HLA-A*24:02 (source organism: Variola virus) and in the assay with HLA-B*08:01 (source organism: Variola virus) were 49.4 µM and at least 91.6 µM, respectively.

For the sequence IEIARTLTL, in the assay with HLA-B*40:01 (source organism: Salmonella enterica subsp. enterica serovar Typhi), the Kd (commonly a measure of binding affinity in units of concentration) turned out to be 0.0108 µM.

With RFKRTSFFL, the IC50 is at least 117 µM with HLA-A*02:01 [1]; at least 504 µM with HLA-A*03:01 [2]; at least 390 µM in the assay with HLA-A*11:01; at least 215 µM with HLA-B*07:02 (setting [8]); 26.5 µM with HLA-B*08:01 (setting [8]); 9.58 µM in the assay with HLA-B*15:01 [3].

As for HFKPPKFRA, the IC50 in the assay with HLA-B*08:01 (source organism: Vaccinia virus) was at least 150 µM. In addition, in the assay with HLA-A*30:01, the Kd amounted to 0.00886 µM.

Regarding RAYAAMHLW, the Kd with HLA-A*02:01 [4] (setting [9]), with HLA-A*02:03 (setting [9]), with HLA-A*02:11 (setting [9]), with HLA-A*02:12 (setting [9]), with HLA-A*02:16 (setting [9]) and with HLA-A*02:19 (setting [9]) was at least 20 µM throughout. Further, the Kd in the assay with HLA-A*03:01 [5] (setting [9]), in the assay with HLA-A*26:01 (setting [9]), with HLA-A*68:02 (setting [9]), in the assay with HLA-A*69:01 (setting [9]), with HLA-B*27:03 (setting [9]) and in the assay with HLA-B*39:01 (setting [9]) was at least 20 µM in each case. In addition, the results for the Kd with HLA-B*46:01 (setting [9]) and with HLA-B*57:01 (setting [9]) were at least 20 µM and 0.31 µM, respectively.

For YLKKLDDFY, the Kd with HLA-A*02:01 [4] (setting [10]), in the assay with HLA-A*02:11 (setting [10]), with HLA-A*02:12 (setting [10]), with HLA-A*02:16 (setting [10]), with HLA-A*02:19 (setting [10]) and with HLA-A*03:01 [5] (setting [10]) was at least 20 µM each time. For the same sequence, the Kd with HLA-A*24:03 (setting [10]), with HLA-A*26:01 (setting [10]), in the assay with HLA-A*68:02 (setting [10]), with HLA-A*69:01 (setting [10]), with HLA-B*18:01 (setting [10]) and with HLA-B*27:03 (setting [10]) was at least 20 µM throughout. Moreover, the Kd with HLA-B*39:01 (setting [10]), with HLA-B*46:01 (setting [10]), in the assay with HLA-B*51:01 (setting [10]) and in the assay with HLA-B*57:01 (setting [10]) was at least 20 µM in each case.

Turning to FLKIKVTAA, the IC50 with HLA-B*08:01 (source organism: Vaccinia virus Copenhagen) amounted to 15.6 µM.

As to IQKGMFVVK, the Kd with HLA-A*02:01 [4] (setting [11]), with HLA-A*02:03 (setting [11]), with HLA-A*02:11 (setting [11]), with HLA-A*02:12 (setting [11]), in the assay with HLA-A*02:16 (setting [11]) and in the assay with HLA-A*02:19 (setting [11]) was at least 20 µM throughout. Further, the Kd with HLA-A*24:03 (setting [11]) is at least 20 µM; in the assay with HLA-A*26:01 (setting [11]) it was at least 20 µM; with HLA-A*31:01, 0.0158 µM; in the assay with HLA-A*68:02 (setting [11]), at least 20 µM; with HLA-A*69:01 (setting [11]) it was at least 20 µM; with HLA-B*18:01 (setting [11]), at least 20 µM. For the same sequence, the Kd with HLA-B*27:03 (setting [11]), with HLA-B*39:01 (setting [11]), with HLA-B*46:01 (setting [11]), in the assay with HLA-B*51:01 (setting [11]) and in the assay with HLA-B*57:01 (setting [11]) was at least 20 µM in each case.

Regarding GLGQYIYET, the Kd with HLA-A*02:01 [4] (setting [12]) stood at 0.14 µM; with HLA-A*02:03 (setting [12]), 0.294 µM; with HLA-A*02:11 (setting [12]), 0.0322 µM; with HLA-A*02:12 (setting [12]), 0.039 µM; in the assay with HLA-A*02:16 (setting [12]), 0.000819 µM; in the assay with HLA-A*02:19 (setting [12]) it was 0.254 µM. The sequence further had a Kd in the assay with HLA-A*69:01 (setting [12]) of at least 20 µM.

DEIAFGLKL: the Kd with HLA-B*15:01 [6] (setting [13]) was at least 20 µM; with HLA-B*40:01 (setting [13]), 3 µM.

For PLFKRGWRL, the Kd with HLA-A*02:01 [4] (setting [14]) was 0.199 µM; with HLA-A*02:11 (setting [14]), 0.0285 µM; in the assay with HLA-A*03:01 [5] (setting [14]), at least 20 µM; in the assay with HLA-A*24:03 (setting [14]) it was at least 20 µM; in the assay with HLA-A*26:01 (setting [14]), at least 20 µM; in the assay with HLA-A*29:02 (setting [14]), at least 20 µM. The Kd in the assay with HLA-B*15:01 [6] (setting [14]), in the assay with HLA-B*18:01 (setting [14]), with HLA-B*27:03 (setting [14]), in the assay with HLA-B*39:01 (setting [14]), with HLA-B*46:01 (setting [14]) and in the assay with HLA-B*51:01 (setting [14]) was at least 20 µM throughout. In the assay with HLA-B*57:01 (setting [14]), this sequence registered a Kd of at least 20 µM.

On to YNAKRIETV, for which the Kd in the assay with HLA-A*02:01 [4] (setting [15]) was at least 20 µM; with HLA-A*02:03 (setting [15]), at least 20 µM; with HLA-A*02:11 (setting [15]), 0.239 µM; with HLA-A*02:12 (setting [15]) it was at least 20 µM; in the assay with HLA-A*02:19 (setting [15]), at least 20 µM; with HLA-A*03:01 [5] (setting [15]) it was at least 20 µM. Also, the Kd with HLA-A*24:03 (setting [15]), with HLA-A*26:01 (setting [15]), with HLA-A*29:02 (setting [15]), with HLA-B*15:01 [6] (setting [15]), with HLA-B*18:01 (setting [15]) and with HLA-B*27:03 (setting [15]) was at least 20 µM throughout. The Kd in the assay with HLA-B*39:01 (setting [15]), with HLA-B*46:01 (setting [15]), in the assay with HLA-B*51:01 (setting [15]) and in the assay with HLA-B*57:01 (setting [15]) was at least 20 µM throughout.
